From paper PMC7596504, “Molecular mechanism of the MORC4 ATPase activation” (Nature Communications, 2020)
Positions count from the first letter of the chain named. Names and notes keep the numbering of the source.

Assays:
[1] = system: HEK293T cells; assay: Cell cycle analysis by flow cytometry; type: cell-based; details: for effect on S phase (words): 48-h overexpression, vs control cells; for percent of cells in S phase: 48-h overexpression of mCherry-tagged protein, EdU/PI, average of three independent experiments, control 34.5%
Protocol: For DNA content analysis, 10^6 cells previously transfected with mCherry MORC4 constructs and labeled with 25 µM Ethynyl deoxyUridine (EdU) for 1 h in 100 µL were washed with PBS (NaCl 137 mM, KCl 2.7 mM, Na2HPO4 10 mM, KH2PO4 1.8 mM) and fixed in ice cold 70% ethanol overnight. Fixed cells were washed and resuspended in PBS containing 0.05% NP40 and incubated at room temperature for 30 min. Cells were again washed with PBS. Cells were resuspended in Alexa Fluor 647 click staining solution (100 mM Tris pH 7.6, 4 mM CuSO4, 3 µM AF647 azide, 100 mM Sodium Ascorbate) for 1 h. Following staining, cells were washed with PBS and then stained for total DNA content using 10 μg/mL propidium iodide (PI) and 0.2 mg/ml RNase A for 60 min before analysis on a FACScan instrument. Data were analyzed using FlowJo (Version 10) with cells gated to remove doublets. EdU vs PI plots were gated in quadrants to identify G1, early S, late S and G2/M cells. S phase fractions were summed for total S phase population. […]

[2] = target: T1, MORC4 CW domain (Homo sapiens, UniProt Q8TE76); assay: 1H,15N HSQC NMR titration of MORC4 CW; type: binding; details: Supplementary Fig. 12
T1 construct: The CW domain (aa 417–475) of MORC4 was cloned into a pGEX 6p-1 vector; GST (N, cleaved yes); made in house; host or cells: E. coli Rosetta2 (DE3) pLysS or BL21 (DE3) RIL
T1 sequence (Q8TE76 417-475): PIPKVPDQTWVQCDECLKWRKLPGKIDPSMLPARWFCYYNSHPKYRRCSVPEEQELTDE
Protocol: NMR experiments were carried out at 298 K on a Varian INOVA 600 and 900 MHz spectrometers. His-tagged MORC4 ATPase (1–411) was expressed and purified as described above and used without cleavage of the tag. NMR samples contained 0.1 mM uniformly ^15N-labeled WT or mutated CW in 20 mM Tris-HCl (pH 7) buffer supplemented with 100 mM NaCl, 5 mM DTT, and 10% D2O. Binding was characterized by monitoring CSPs in the proteins induced by H3 peptides or the ATPase domain. For the CWKRR mutant, NMR experiments were performed in 20 mM Tris-HCl (pH 6.8) buffer supplemented with 150 mM NaCl, 2 mM DTT, and 10% D2O.

[3] = system: HEK293T cells; assay: MORC4 localization and nuclear bodies (confocal microscopy); type: cell-based; details: live cells, confocal microscopy, 48 h post transfection
Protocol: WT mCherry-MORC4, mCherry-MORC4 E56A, mCherry-MORC4 W435A, mCherry-MORC4 E56A/W435A, mCherry-MORC4 K460A/R462A/R463A, or mCherry control plasmid were transfected into 2 million 293T-HEK cells seeded on 25 mm circular coverslips (Carolina Biological Supply Item#: 633057) in 10-cm-diameter tissue culture dish by Lipofectamine 3000 (Life Technology, L3000-075) following the manufacturer’s instructions. Two days after transfection, cells were stained with Hoechst […] for 30 min and imaged live on a ZeissAxiovert 200 M inverted microscope fitted with a ×40 oil objective. Images were acquired with Slidebook 6 software and exported for analysis in Image J.
mCherry foci sizes were calculated using ImageJ image processing program (version 1.51) using the Analyze Particle tool. mCherry particle sizes were collected for MORC4 WT and MORC4 W435A transfected cells. Data were plotted with R (version 3.4.1) using ggplot2 (version 3.2.1). Cell size and mCherry foci count per cell were calculated using CellProfile cell image analysis software (version 3.1.5) to identify nuclei and mCherry foci, relate mCherry foci to nuclei containing them and measure the size of nuclei and number mCherry foci contained. Data were plotted with R (version 3.4.1) using ggplot2 (version 3.2.1).

[4] = system: NCP147; assay: FRET, LexA titration into Cy3-Cy5 labeled NCP147; type: binding; details: mean of n = 3
Protocol: Histone octamers unlabeled or labeled with Cy5 at H2AK119 were prepared as previously described. NCPs were reconstituted by combining octamer with 1.25× excess DNA and performing slow salt dialysis. Free DNA was then separated from fully reconstituted NCPs by sucrose gradient purification. NCPs for fluorescence polarization assays were reconstituted from unlabeled octamer and 207 bp DNA containing the 601 Widom sequence flanked with a 30 bp linker on either side and internally labeled with Fluorescein 27 bp in from the 5′ end. Cy3-Cy5 labeled NCPs for FRET assays were reconstituted with Cy5 labeled octamer plus either 147 bp 601 Widom DNA containing a LexA transcription factor binding site at bases 8–27[34], or 252 bp DNA containing the 601 Widom sequence with a 75 bp linker at the 3′ end, a 30 bp linker at the 5’ end, and a Gal4 transcription factor binding site at bases 8–26 in the 601 Widom sequence. The 147 bp LexA-binding DNA was labeled with Cy3 on the 5′ end, and the 252 bp Gal4-binding DNA was internally labeled with Cy3 34 bp in from the 5′ end.
LexA was expressed in E. coli, separated from genomic DNA and the proteome by polyethyleneimine precipitation, and salted out with ammonium sulfate. LexA was resuspended in buffer A (20 mM potassium phosphate pH 7, 0.1 mM EDTA, 10% glycerol, 1 mM DTT) + 200 mM NaCl and purified by a linear gradient to A + 800 mM NaCl over either a cellulose phosphate or HiTrap Heparin HP column. […]
Cy3-Cy5 NCP FRET efficiency measurements were carried out on a Horiba Scientific Fluoromax 4. […] LexA titrations were carried out in 20 mM Tris pH 7.5, 75 mM NaCl, 10% glycerol, 0.00625% Tween 20 buffer with 5 nM 147 bp Cy3-Cy5 NCPs mixed in 20 µL reaction volumes and allowed to incubate for 5 mins at 4 °C before FRET of the sample was measured. […] Gal4 (1–147) titrations were carried out in 10 mM Tris pH 8, 130 mM NaCl, 10% glycerol, 0.0075% Tween 20 buffer with 1 nM 252 bp Cy3-Cy5 nucleosomes mixed in 60 µL reaction volumes and allowed to incubate for 10 mins at room temperature before FRET of the sample was measured. […]

B1: MORC4 K460A/R462A/R463A: mCherry-tagged MORC4 triple mutant with disrupted DNA-binding activity of CW (protein, UniProt Q8TE76 1-937, looked up, variant K460A R462A R463A)
MORC family CW-type zinc …: MLLYRGAPAGPGAPGCGLARPGGGPQAFGIRLSTMSPRYLQSNSSSHTRPFSAIAELLDNAVDPDVSARTVFIDVEEVKNKSCLTFTDDGCGMTPHKLHRMLSFGFTDKVIKKSQCPIGVFGNGFKSGSMRLGKDALVFTKNGGTLTVGLLSQTYLECVQAQAVIVPIVPFNQQNKKMIITEDSLPSLEAILNYSIFNRENDLLAQFDAIPGKKGTRVLIWNIRRNKNGKSELDFDTDQYDILVSDFDTEEKMTGGVTSELPETEYSLRAFCGILYMKPRMKIFLRQKKVTTQMIAKSLANVEYDTYKPTFTNKQVRITFGFSCKNSNQFGIMMYHNNRLIKSFEKVGCQVKPTRGEGVGVIGVIECNFLKPAYNKQDFEYTKEYRLTINALAQKLNAYWKEKTSQDNFETSTVARPIPKVPDQTWVQCDECLKWRKLPGKIDPSMLPARWFCYYNSHPAYAACSVPEEQELTDEDLCLSKAKKQEQTVEEKKKMPMENENHQVFSNPPKILTVQEMAGLNNKTIGYEGIHSPSVLPSGGEESRSPSLQLKPLDSSVLQFSSKYKWILGEEPVEKRRRLQNEMTTPSLDYSMPAPYRRVEAPVAYPEGENSHDKSSSERSTPPYLFPEYPEASKNTGQNREVSILYPGAKDQRQGSLLPEELEDQMPRLVAEESNRGSTTINKEEVNKGPFVAVVGVAKGVRDSGAPIQLIPFNREELAERRKAVESWNPVPYSVASAAIPAAAIGEKARGYEESEGHNTPKLKNQRELEELKRTTEKLERVLAERNLFQQKVEELEQERNHWQSEFKKVQHELVIYSTQEAEGLYWSKKHMGYRQAEFQILKAELERTKEEKQELKEKLKETETHLEMLQKAQVSYRTPEGDDLERALAKLTRLRIHVSYLLTSVLPHLELREIGYDSEQVDGILYTVLEANHILD
modifications: mCherry tag
With B1 the “effect on S phase (words)” value [1] was “increased percent of cells in S phase” and the “effect on S phase (words)” value ([1]; listed as K460A/R462A/R463A) was “no significant effect was observed”.

B2: E56A/W435A: dual mutant of mCherry-tagged MORC4 (protein, UniProt Q8TE76 1-937, looked up, variant E56A W435A)
chain: B1 MORC family CW-type zinc … with E56A, W435A, A460K, A462R, A463R
modifications: full-length mCherry tag
notes: dual mutant of mCherry-tagged MORC4
For B2, the “percent of cells in S phase” value [1] was 35.8%.

B3: MORC4 W435A: mCherry-tagged full-length MORC4 W435A mutant, in which the structure of the CW domain is disrupted (protein, UniProt Q8TE76 1-937, looked up, variant W435A)
chain: B1 MORC family CW-type zinc … with W435A, A460K, A462R, A463R
modifications: full-length mCherry tag
B3 was tested, and the “structure of the CW domain” value [2] was “the structure of the CW domain is disrupted”, the “subcellular localization” value [3] was “dispersed throughout the cell” and the “percent of cells in S phase” value [1] was 36.5%.

B4: LexA: transcription factor LexA, expressed in E. coli (protein, UniProt P0A7C2 1-202, looked up)
LexA repressor: MKALTARQQEVFDLIRDHISQTGMPPTRAEIAQRLGFRSPNAAEEHLKALARKGVIEIVSGASRGIRLLQEEEEGLPLVGRVAAGEPLLAQQHIEGHYQVDPSLFKPNADFLLRVSGMSMKDIGIMDGDLLAVHKTQDVRNGQVVVARIDDEVTVKRLKKQGNKVELLPENSEFKPIVVDLRQQSFTIEGLAVGVIRNGDWL
Work on B4 yielded an S1/2 ([4]; +1 μM MORC4 ATPaseCW) of 2.4 ± 0.4 µM and an S1/2 ([4]; without MORC4, 5 nM NCP147, pH 7.5, 75 mM NaCl, 4 °C, 5 min) of 0.9 ± 0.2 µM.
